Measurements taken from the supplement of paper PMC11865577.

How the values were obtained:
Assay in all cases: pull-down binding Z-score (relative to library population); higher = stronger binding
Details in all cases: RNA library: Library-2
[1] = test system: TO-3-N3 (biotin conjugate)
Summary of the method: (§1)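 Streptavidin beads bearing 100 pmol of a biotin-conjugated small molecule were incubated for 60 min at 25 °C with 1 μg of heat-folded, Cy5- or Cy3-end-labelled RNA library in phosphate/NaCl/KCl buffer. Hot SDS eluted the RNA that stayed bound after three washes, and this RNA was hybridised for 20 h at 55.5 °C to a DNA barcode microarray. Binding was expressed as a Z-score against the library mean and standard deviation, after subtraction of a beads-only signal and trimmed averaging of barcoded replicate probes.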

[2] = test system: TO-3-N3-2 (biotin conjugate)
Summary of the method: as §1

[3] = test system: TO-N3-2 (biotin conjugate)
Summary of the method: as §1

TO-N3 (biotin conjugate) = test system: TO-N3 (biotin conjugate)
Summary of the method: as §1

Row | Sequence | pull-down binding Z-score [1] | pull-down binding Z-score [2] | pull-down binding Z-score [3] | pull-down binding Z-score (TO-N3 (biotin conjugate))
1 | AUGAGGUUUAGAAGAGCUUUUGGUGAAUACAGUCAUGUAGUUGCCUUUAAUACUUUACUAUUCCUUAU | -0.216 | 0.205 | -0.689 | -0.296
2 | AUGAGUACGAACUUAUGUACUCAU | -0.0199 | -0.43 | -1.18 | -0.309
3 | AUGAUGUUUCUUUUUUAGCACAU | -0.696 | -0.427 | -1.28 | -1.09
4 | AUGCAUUCUGCAU [SHAPE_invivo_SARS-CoV-2_Motif_273] | -0.0791 | -0.638 | -1.32 | -0.142
5 | AUGCCAACUAUUUUCUUUGCUGGCAU | -0.81 | -0.637 | -1.13 | -1.36
6 | AUGCCUUUUUACCUUUUGCUAUGGGUAUUAUUGCUAUGUCUGCUUUUGCAAUGAUGUUUGUCAAACAUAAGCAUGCAU [DMSMaPseq_invitro_SARS-CoV-2_Multi_36_ComplexLevel_1] | 0.159 | 0.472 | -0.261 | 0.0122
7 | AUGCUGACGAUGGUCAUUUUGUCAGCAU [IAV_invivo_M1_M2_7_Motif_18+IAV_invivo_M1_M2_7_Motif_18] | 0.0275 | 0.337 | -0.84 | -0.322
8 | AUGCUGUUACAGCGU | -0.973 | -0.512 | -1.07 | -1.35
9 | AUGCUUGGAACAGGAAGAGAAUCAGCAACUGUGUUGCUGAUUAUUCUGUCCUAUAUAAUUCCGCAU [DMSMaPseq_invitro_SARS-CoV-2_Motif_399] | -0.314 | -0.327 | -0.139 | -0.459
10 | AUGGCCCCGAUUUCAGCUAU [SHAPE_invivo_SARS-CoV-2_Motif_151] | -0.51 | -0.281 | -0.0238 | -0.668
11 | AUGGCUGAUCAAGCUAU [DMSMaPseq_invitro_SARS-CoV-2_Motif_216] | -0.238 | -0.583 | -0.747 | -0.208
12 | AUGGUAAGUGCGAUACUUACCUG [U1snRNP5ss-24] | -0.32 | -0.139 | 0.974 | -0.213
13 | AUGGUCUUUGUUCUUUUUUUUGUAUGAAAAUGCCUUUUUACCUUUUGCUAUGGGUAUUAUUGCUAU | -0.455 | 0.135 | -0.569 | -0.507
14 | AUGGUGCUAACAAAGACGGCAUCAU [SHAPE_invivo_SARS-CoV-2_Motif_545] | 0.0674 | -0.105 | -0.639 | -0.143
15 | AUGGUUAUCUUACUUCUUCUUCUAAAACACCUGAAGAACAUUUUAUUGAAACCAU | -0.93 | 0.0544 | -1.01 | -1.19
16 | AUGUACAUCUUCUUUGCAUCAUUUUAUUAUGUAUGGAAAAGUUAUGUGCAU | -1.16 | -0.603 | -1.44 | -1.36
17 | AUGUACUUGGAUUGGCUGCAAUCAUGCAAUUGUUUUUCAGCUAUUUUGCAGUACAU | -0.182 | -0.577 | -0.271 | -0.401
18 | AUGUCAUAUUGGAGUUGGACUGCAGGGCUUCCUUUACACAAUAAAUAUUGUAUGAAGUGCUGAUGUAACCUUUACUGCAGCAUGACAU [hsa-mir-3976] | 0.131 | -0.081 | 0.0127 | 0.227
19 | AUGUUUGUCAAACAUAAGCAU [DMSMaPseq_invitro_SARS-CoV-2_Motif_200] | -0.651 | -0.54 | -0.806 | -0.873
20 | AUUACUGCAAAAUGGUAUGAAUGGACGUACCAUAUUGGGUAGU [DMSMaPseq_invitro_SARS-CoV-2_Motif_194] | 0.151 | 0.144 | -0.151 | 0.0935
21 | AUUAGAGAAAACAACAGAGUUGUUAUUUCUAGU [DMSMaPseq_invitro_SARS-CoV-2_Motif_378] | 0.0547 | -0.0987 | -0.787 | -0.17
22 | AUUAUGAGGACUUUUAAAGUUUCCAUUUGGAAUCUUGAUUACAUCAUAAACCUCAUAAU | -1.1 | -0.377 | -1.25 | -1.39

Row | Sequence | pull-down binding Z-score [1] | pull-down binding Z-score [2] | pull-down binding Z-score [3] | pull-down binding Z-score (TO-N3 (biotin conjugate))
23 | AUUAUGUGUACCUUCCUUACCCAGAUCCAUCAAGAAUCCUAGGGGCCGGCUGUUUUGUAGAUGAUAUCGUAAAAACAGAUGGUACACUUAUGAU [DMSMaPseq_invitro_SARS-CoV-2_Multi_47_ComplexLevel_1] | -0.234 | 0.0322 | 0.511 | 0.0551
24 | AUUCUAUUCUAUUCUAUUCU [r(AUUCU)4] | 1.33 | -0.0109 | -0.629 | 1.03
25 | AUUCUGAAGUUGUUCUUAAAAAGUUGAAGAAGUCUUUGAAU [DMSMaPseq_invitro_SARS-CoV-2_Motif_213] | -0.963 | -0.324 | -0.353 | -1.03
26 | AUUGACAUUAAUGGCAAUCUUCAUCCAGAUUCUGCCACUCUUGUUAGU [DMSMaPseq_invitro_SARS-CoV-2_Motif_73] | -0.785 | -0.197 | -0.113 | -0.723
27 | AUUGGCGACCCUGCUCAAU [DMSMaPseq_invitro_SARS-CoV-2_Motif_311] | 0.191 | -0.309 | -0.232 | 0.0933
28 | AUUGGUGCAGGUAUAUGCGCUAGU | -0.974 | -0.674 | -0.926 | -1.16
29 | AUUGUUACAUAAACCUAUUGUUUGGCAUGUUAACAAU | -0.915 | -0.197 | -0.663 | -0.895
30 | AUUGUUCAACUUAGUGAAAUUAGUAUGGACAAU | 0.851 | 0.243 | -0.828 | 0.606
31 | AUUGUUGUCGCUUCCAAGAAAAGGACGAAGAUGACAAU [DMSMaPseq_invitro_SARS-CoV-2_Motif_245] | 0.287 | -0.272 | -0.371 | -0.00678
32 | AUUUGAACUCUACUAAUGUCACUAUUGCAACCUACUGUACUGGUUCUAUACCUUGUAGUGUUUGUCUUAGUGGUUUAGAU | -0.873 | -0.244 | -0.913 | -1.06
33 | AUUUUUCUAAACUGAUAAAU [DMSMaPseq_invitro_SARS-CoV-2_Motif_131] | -0.374 | -0.194 | -1.08 | -0.771
34 | CAAAUGUGCCUUUCAACUCUCAUGAAGUGUGAUCAUUGUGGUGAAACUUCAUGGCAGACGGGCGAUUUUG | -0.685 | -0.412 | 0.555 | -0.576
35 | CAACAAAAGUUG [SHAPE_invivo_SARS-CoV-2_Motif_413] | -0.893 | -0.787 | -1.52 | -1.44
36 | CAACAAUGUGUGAUAUCAGACAACUACUAUUUGUAGUUGAAGUUGUUG | -0.133 | 0.0207 | -0.217 | -0.104
37 | CAACCUAAAUAGAGGUAUG | -0.399 | -0.292 | -0.591 | -0.716
38 | CAACGGUACUAUUACCGUUG | -0.275 | -0.426 | -1.59 | -0.553
39 | CAACGUAAGUUG [DMSMaPseq_invitro_SARS-CoV-2_Motif_215] | -0.34 | -0.477 | -1.6 | -0.732
40 | CAACUCUCAUGAAGUGUGAUCAUUGUGGUGAAACUUCAUGGCAGACGGGCGAUUUUGUUAAAGCCACUUGCGAAUUUUG | -0.573 | -0.197 | 0.0444 | -0.161
41 | CAACUGAAAUCUAUCAGGCCGGUAGCACACCUUGUAAUGGUGUUGAAGGUUUUAAUUG [SHAPE_invivo_SARS-CoV-2_Motif_433] | -0.552 | -0.292 | 0.0571 | -0.566
42 | CAACUUACAAAUUAAAUGUUG | -0.448 | -0.152 | -1.06 | -0.698
43 | CAAGAGAAGUGGGUUUUGUCGUGCCUGGUUUGCCUGGCACGAUAUUACGCACAACUAAUG | -0.455 | -0.209 | -0.297 | -0.438
44 | CAAGGACCUGCCUAAAGAAAUCACUGUUGCUACAUCACGAACGCUUUCUUAUUACAAAUUGGGAGCUUCGCAGCGUGUAGCAGGUGACUCAGGUUUUG [DMSMaPseq_invitro_SARS-CoV-2_Motif_486] | -0.688 | -0.309 | 0.921 | -0.158

Row | Sequence | pull-down binding Z-score [1] | pull-down binding Z-score [2] | pull-down binding Z-score [3] | pull-down binding Z-score (TO-N3 (biotin conjugate))
45 | CAAGGCUAUUGAUGGUGGUGUCACUCGUGACAUAGCAUCUACAGAUACUUG [SHAPE_invivo_SARS-CoV-2_Motif_176] | -0.614 | -0.243 | 0.281 | -0.424
46 | CAAGGGUACACACCACUG | 0.824 | -0.131 | 0.0749 | 0.81
47 | CAAUACAUAAGAAAGCUACAUGAUGAGUUAACAGGACACAUGUUAGACAUGUAUUCUGUUAUGCUUACUAAUGAUAACACUUCAAGGUAUUG | -0.424 | 0.625 | -0.157 | -0.411
48 | CAAUGUGUGAUAUCAGACAACUACUAUUUGUAGUUGAAGUUGUUGAUAAGUACUUUG [DMSMaPseq_invitro_SARS-CoV-2_Motif_268] | -0.462 | -0.487 | -0.156 | 0.105
49 | CACAAGGCAGAUGGGCUAUAUAAACGUUUUCGCUUUUCCGUUUACGAUAUAUAGUCUACUCUUGUG | -0.81 | -0.5 | -0.455 | -0.787
50 | CACAGAAAAGUACUGUG [SHAPE_invivo_SARS-CoV-2_Motif_52] | 1.15 | 0.427 | -0.279 | 0.891
51 | CACAUCAGUAGUCUUACUCUCAGUUUUGCAACAACUCAGAGUAGAAUCAUCAUCUAAAUUGUG [DMSMaPseq_invitro_SARS-CoV-2_Motif_209] | -0.736 | -0.352 | -0.741 | -0.843
52 | CACAUCUAGGUUUCGUCCGGGUGUG [SARS-CoV-2-Conserved-Structured-16_Interval-158-277_Motif_2] | 0.468 | -0.459 | -0.319 | 0.254
53 | CACAUGAAGGUAAAACAUUUUAUGUUUUACCUAAUGAUG | -0.659 | -0.743 | -0.256 | -0.73
54 | CACCAAGACUACUUACUGGUG [IAV_invivo_PB1_2_Motif_22+IAV_invivo_PB1_2_Motif_22] | -0.338 | -0.501 | -1.37 | -0.706
55 | CACCACUUAACCGAAAUUAUGUCUUUACUGGUUAUCGUGUAACUAAAAACAGUAAAGUACAAAUAGGAGAGUACACCUUUGAAAAAGGUGACUAUGGUG | -0.803 | -0.419 | -0.309 | -0.623
56 | CACCAUCUGGUG [DMSMaPseq_invitro_SARS-CoV-2_Motif_188] | 0.319 | -0.158 | -1.15 | 0.0701
57 | CACCCGCGAAGAAGCUAUAAGACAUGUACGUGCAUGGAUUGGCUUCGAUGUCGAGGGGUG | 0.929 | -0.23 | 0.0562 | 0.845
58 | CACGUCCAACUCAGUUUGCCUGUUUUACAGGUUCGCGACGUG | 0.0988 | -0.0582 | 0.192 | 0.0672
59 | CACUAAAAAGUGGAAAUACCCACAAGUUAAUG | -0.634 | -0.22 | -0.609 | -0.552
60 | CACUCAAAGGCGGUGCACCAACAAAGGUUACUUUUGGUGAUGACACUGUGAUAGAAGUG [DMSMaPseq_invitro_SARS-CoV-2_Motif_50] | -0.531 | -0.205 | -0.0256 | -0.234
61 | CACUGUACAGUCUAAAAUGUCAGAUGUAAAGUG [DMSMaPseq_invitro_SARS-CoV-2_Motif_208] | -0.25 | -0.0983 | -0.645 | -0.414
62 | CACUUAUCUUAGCCUACUGUAAUAAGACAGUAGGUGAGUUAGGUG | -0.861 | -0.273 | -1.07 | -1.2
63 | CACUUCUUUCUUUGAGAGAAGUG | -0.323 | -0.228 | -1.42 | -0.669
64 | CAGACAACACAUUUGUGUCUG | -1.07 | -0.67 | -1.8 | -1.45
65 | CAGACUUUAUGAGUGUCUCUAUAGAAAUAGAGAUGUUGACACAGACUUUGUGAAUGAGUUUUACGCAUAUUUGCGUAAACAUUUCUCAAUGAUGAUACUCUCUG | -0.919 | -0.449 | -1.1 | -1.21
